Target: ookinete protein Pfs25 (Plasmodium falciparum NF54 (3D7 entry …, UniProt P13829))
Assay: ELISA; Pfs25 ELISA; series of mAb concentrations, OD 450 nm

Sequence of ookinete protein Pfs25 (Plasmodium falciparum NF54 (P13829 17-196): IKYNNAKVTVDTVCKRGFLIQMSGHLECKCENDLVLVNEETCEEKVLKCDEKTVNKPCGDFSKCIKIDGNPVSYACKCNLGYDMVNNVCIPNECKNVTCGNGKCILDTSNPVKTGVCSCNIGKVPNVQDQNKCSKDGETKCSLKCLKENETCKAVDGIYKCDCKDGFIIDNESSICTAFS

Binder	binding result
LMIV230-01 human monoclonal antibody (IgG1, kappa) (antibody, V domains shown) VH: QVQLVQSGAEVKKPGSSVKVSCKVSGGTFNTYAIIWVRQAPGQGLEWMGAIIPFQDRGQYAQKFQGRVTITADKSTSTAYMELSSLRSEDTAVYYCAKESGRAVADRWGQGTLVTVSS VL: DIVMTQSPASLALSLGERATLYCRASHSISSWLAWYQQKPGKAPKLLIYKASTLESGVPSRFSGSGSGTEFTLTISSLQPDDFATYYCQQYKSYPWTFGQGTKLEIK	no binding
LMIV230-02 human monoclonal antibody (IgG1, kappa) (antibody, V domains shown) VH: QVQLVQSGAEVKKPGSSVKVSCKASGGTFNSYGISWVRQAPGQGLEWVGGIIPSFGTADYAQKFQGRVTFTTDTSTSTAYMEVSSLRSEDTAVYYCAGSSWSSGTYYGRSAYWGQGTLVTVSS VL: EIVMTQSPASLALSLGERATINCKSSQSVLYSSNNKNYLAWYQQKPGQPPKLLIYWASTRESGVPDRFSGSGSGTDFTLTISSLQAGDVAVYHCQQYYSTPYSFGQGTKLEIK	no binding

Source: publication PMC7979743 (Nature Communications, 2021)
